Here are results for one molecule from patent US20220305136A1 (ASCENDIS PHARMA ONCOLOGY DIVISION A S, published 2022).

For the experiment, the target named is T1, human CTLA-4 (AA Ala37-Ser160)-Fc Tag fusion protein (human, UniProt P16410 37-160).
T1 construct: range 37-160; Bought reagent, coated on ELISA wells as the capture protein; also called AcroBiosystem catalog no; CT4-H5255; not shown: Fc Tag of the bought fusion protein
T1 sequence (looked up): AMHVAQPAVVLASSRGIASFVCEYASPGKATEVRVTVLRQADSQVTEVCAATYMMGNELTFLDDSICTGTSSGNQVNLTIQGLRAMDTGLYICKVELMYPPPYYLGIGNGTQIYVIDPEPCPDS
Description: in-house sandwich ELISA; CTLA-4-Fc coated on plate captures HHC^MET from rat plasma; read-out with rabbit anti-camelid VHH antibody-HRP. The text has this:
These solutions were used for the generation of a calibration curve.

B1: HHC^MET (VHH)
chain: EVQLVESGGGLVQAGGSLRLSCAASGGTFSFYGMGWFRQAPGKEQEFVADIRTSAGRTYYADSVKGRFTISRDNAKNTVYLQMNSLKPEDTAVYYCAAEMSGISGWDYWGQGTQVTVSSGGGGSGGGSEVQLVESGGGLVQAGGSLRLSCAASGGTFSFYGMGWFRQAPGKEQEFVADIRTSAGRTYYADSVKGRFTISRDNAKNTVYLQMNSLKPEDTAVYYCAAEMSGISGWDYWGQGTQVTVSS
notes: Custom made, expressed in E. coli; The assay measured free HHC^MET in rat plasma, either spiked in as standard or released from the hydrogel prodrug; also called HHC^MET-NH2
Take B1: the binding result was “binds”.
